Laboratory results: article PMC3948464 (Nature Communications, 2014)

Molecular target: GST-AK2 (glutatione S-transferase-adenylate kinase 2) (human, UniProt P54819 1-239)
Experiment: SEC

binding result: binds
B1: His-DUSP26 (enzyme)
chain: MCPGNWLWASMTFMARFSRSSSRSPVRTRGTLEEMPTVQHPFLNVFELERLLYTGKTACNHADEVWPGLYLGDQDMANNRRELRRLGITHVLNASHSRWRGTPEAYEGLGIRYLGVEAHDSPAFDMSIHFQTAADFIHRALSQPGGKILVHCAVGVSRSATLVLAYLMLYHHLTLVEAIKKVKDHRGIIPNRGFLRQLLALDRRLRQGLEA
